Reference: PMC10796598

Biological target: synaptobrevin2 (syb2) All ItoA (rat) (UniProt P63045)

With “synaptobrevin2 (syb2) All ItoA (from UniProt P63045 1-116) (natural protein)” as the substance, how does the mean open-state dwell time (<t (o-obs)>) of single fusion pores, ND5S(All ItoA) on t-SNARE BLM read?
Its mean open-state dwell time (<t (o-obs)>) of single fusion pores, ND5S(All ItoA) on t-SNARE BLM is 36 ms.
